Numbering of substitutions follows the chain as printed. Names and notes keep the numbering of the source. Values belong to the binder of their own block, whether it stands above or below them.
Experiments:
[1] = molecular target: T1, IL-18Rα/β heterodimer (Fc fused human IL-18Rα mixed with Fc fused human IL-18Rβ) (human, UniProt Q13478 19-329; O95256 20-356, limits assumed); test: SPR, Fc-IL-18Rα/β captured, heterogeneous ligand fit
T1 construct: Alpha and beta Fc fusions were mixed and pre-incubated for 30 min before capture on anti-human IgG; also called alpha/beta heterodimer IL-18 receptor; heterodimeric human IL-18 receptor alpha (CD218a) and IL-18R accessory protein (IL-18RAP/CDw218b); not shown: Fc
T1 sequence (looked up) 1: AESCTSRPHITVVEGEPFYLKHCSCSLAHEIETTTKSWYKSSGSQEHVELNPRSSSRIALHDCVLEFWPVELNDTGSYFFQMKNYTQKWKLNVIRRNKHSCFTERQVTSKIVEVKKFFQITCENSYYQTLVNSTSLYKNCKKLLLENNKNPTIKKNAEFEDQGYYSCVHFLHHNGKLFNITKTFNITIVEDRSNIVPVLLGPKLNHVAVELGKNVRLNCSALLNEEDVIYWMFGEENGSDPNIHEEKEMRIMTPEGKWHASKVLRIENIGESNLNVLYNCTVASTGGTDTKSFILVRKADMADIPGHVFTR
T1 sequence (looked up) 2: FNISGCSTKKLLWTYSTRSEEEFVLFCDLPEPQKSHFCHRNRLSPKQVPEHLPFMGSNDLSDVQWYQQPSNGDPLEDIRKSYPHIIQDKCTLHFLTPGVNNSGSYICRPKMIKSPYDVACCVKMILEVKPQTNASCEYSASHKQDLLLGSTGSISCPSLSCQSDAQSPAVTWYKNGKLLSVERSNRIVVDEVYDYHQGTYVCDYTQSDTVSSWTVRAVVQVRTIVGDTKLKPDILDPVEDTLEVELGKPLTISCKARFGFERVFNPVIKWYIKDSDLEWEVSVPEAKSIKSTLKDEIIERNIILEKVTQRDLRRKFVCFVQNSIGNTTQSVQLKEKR
Experimental: (§1) The interaction of the wild type and of modified IL-18 polypeptides with human IL-18 receptor subunits are measured with Surface Plasmon Resonance (SPR) technology. Anti-human IgG antibodies are bound by amine coupling onto a CM5 chip to capture 6 µg/mL of Fc fused human IL-18Rα, […] of Fc fused human IL-18Rβ, or […] of Fc fused human IL-18BP isoform a (IL-18BPa) for 30 min before capture. In other settings, […] of alpha and beta IL-18 receptors are mixed and pre-incubated for 30 min before capture of the alpha/beta heterodimer IL-18 receptor.
(§2) The kinetic binding of the IL-18 analytes are measured with a Biacore 8K instrument in two fold serial dilutions starting at […] down to 0.98 nM. Regeneration of the surface back to amine coupled anti IgG antibody is done after every concentration of analyte. To measure the protein association to the receptors, the samples are injected with a flow rate of […] for 60 s, followed by 300 s buffer only to detect the dissociation. The used running buffer is 1×PBS with 0.05% Tween20. The relative response units (RU, Y-axis) are plotted against time (s, X-axis) and analyzed in a kinetic 1:1 binding model for the monomer receptor binding and for the binding to the IL-18BP. A kinetic heterogenous ligand fit model is applied for the alpha/beta heterodimer binding.

Fc fused human IL-18Rα = molecular target: T2, Fc fused human IL-18Rα (human, UniProt Q13478 19-329, limits assumed); test: SPR, Fc-IL-18Rα captured, 1:1 fit
T2 construct: also called IL-18Rα monomer; human IL-18 receptor alpha (CD218a); not shown: Fc
T2 sequence (looked up): T1 sequence (looked up) 1
Experimental: as §1, §2

[2] = molecular target: T3, IL-18 receptor (IL-18R) on HEK-Blue IL18R reporter cells (UniProt Q13478 19-541; O95256 20-599, limits assumed); test: cell-based or functional assay
T3 sequence (looked up) 1: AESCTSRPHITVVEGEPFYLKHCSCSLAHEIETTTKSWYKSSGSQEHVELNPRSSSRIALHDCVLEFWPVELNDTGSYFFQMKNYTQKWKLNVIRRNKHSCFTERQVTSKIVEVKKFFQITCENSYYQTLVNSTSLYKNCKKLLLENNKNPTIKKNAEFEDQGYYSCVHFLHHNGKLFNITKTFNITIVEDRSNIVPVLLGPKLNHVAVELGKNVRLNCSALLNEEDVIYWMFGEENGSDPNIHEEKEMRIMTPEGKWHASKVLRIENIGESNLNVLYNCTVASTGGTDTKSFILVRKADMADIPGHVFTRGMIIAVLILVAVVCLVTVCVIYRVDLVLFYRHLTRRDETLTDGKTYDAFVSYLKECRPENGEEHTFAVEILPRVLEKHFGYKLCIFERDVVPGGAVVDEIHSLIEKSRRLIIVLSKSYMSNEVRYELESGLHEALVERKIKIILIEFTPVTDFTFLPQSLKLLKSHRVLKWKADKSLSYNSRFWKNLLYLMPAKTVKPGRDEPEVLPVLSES
T3 sequence (looked up) 2: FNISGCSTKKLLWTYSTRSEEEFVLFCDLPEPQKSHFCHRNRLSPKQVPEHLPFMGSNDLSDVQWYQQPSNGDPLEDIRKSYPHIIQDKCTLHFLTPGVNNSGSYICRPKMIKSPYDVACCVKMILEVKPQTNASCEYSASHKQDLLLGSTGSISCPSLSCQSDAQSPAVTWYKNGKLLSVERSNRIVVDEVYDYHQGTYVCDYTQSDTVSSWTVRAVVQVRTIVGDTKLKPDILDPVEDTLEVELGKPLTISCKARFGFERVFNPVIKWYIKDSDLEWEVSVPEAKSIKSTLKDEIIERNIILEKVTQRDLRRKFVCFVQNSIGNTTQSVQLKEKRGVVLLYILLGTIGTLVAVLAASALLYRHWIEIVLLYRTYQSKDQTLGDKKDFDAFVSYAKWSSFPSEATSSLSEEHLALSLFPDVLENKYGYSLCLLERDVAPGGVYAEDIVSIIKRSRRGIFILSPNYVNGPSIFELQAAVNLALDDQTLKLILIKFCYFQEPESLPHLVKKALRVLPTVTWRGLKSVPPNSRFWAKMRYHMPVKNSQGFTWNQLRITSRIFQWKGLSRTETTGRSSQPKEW

[3] = molecular target: T3, IL-18 receptor (IL-18R) on HEK-Blue …; test: cell-based or functional assay; remark: listed apart in the source

Kd [1]: 490 pM
koff [1]: 0.000311 s⁻¹
kon [1]: 866000 M⁻¹ s⁻¹
Kd (Fc fused human IL-18Rα): 30300 pM
koff (Fc fused human IL-18Rα): 0.0536 s⁻¹
kon (Fc fused human IL-18Rα): 1.77e+06 M⁻¹ s⁻¹
EC50 (read off the curve); SEAP reporter in HEK-Blue IL18R cells (OD 620 nM) [2]: ~0.05 pM
EC50, HEK-Blue IL18R reporter [3]: 53 pM
B1: IL-18 variant SEQ ID NO: 30 (E6K, V11I, C38A, K53A, T63A, C76A, C127A) (ligand)
chain: YFGKLKSKLSIIRNLNDQVLFIDQGNRPLFEDMTDSDARDNAPRTIFIISMYADSQPRGMAVAISVKCEKISTLSAENKIISFKEMNPPDNIKDTKSDIIFFQRSVPGHDNKMQFESSSYEGYFLAAEKERDLFKLILKKEDELGDRSIMFTVQNED

Kd [1]: 660 pM
koff [1]: 0.000815 s⁻¹
kon [1]: 1.24e+06 M⁻¹ s⁻¹
Kd (Fc fused human IL-18Rα): 17800 pM
koff (Fc fused human IL-18Rα): 0.0165 s⁻¹
kon (Fc fused human IL-18Rα): 1.77e+06 M⁻¹ s⁻¹
EC50 (read off the curve); SEAP reporter in HEK-Blue IL18R cells (OD 620 nM) [2]: ~0.3 pM
EC50, HEK-Blue IL18R reporter [3]: 268 pM
B2: IL-18 variant SEQ ID NO: 59 (E6K, C38A, K53A) (ligand)
chain: B1 chain with I11V, A63T, A76C, A127C

Reference: patent publication US20250186594A1 (BRIGHT PEAK THERAPEUTICS, published 2025)
